Our source for the protein stability index values is the supplement of paper PMC10724198.

± gives the standard deviation of the averaged measurements.
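Note: PSI is a weighted mean of sequencing reads over stability bins, variants kept only with over 10 reads, mCherry proximal and sfGFP distal, peptide attached via GGGS linker.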

The subject of this data set is Saccharomyces cerevisiae. In words: protein stability index of tFT-peptide fusion (C-terminal peptide) (PSI (0-1 scale)); higher = more stable (slower turnover). The settings on record: genetic background: wild type; temperature: 30 C.
As to QKERENKHTEIE, the protein stability index stood at 0.645 ± 0.21.
For the sequence QKINKRPTIRQI, the protein stability index was determined as 0.603 ± 0.063.
Sequence QKKELQKQKIAK yielded a protein stability index of 0.683 ± 0.015.
Next, QKKKEKKQKEGD: 0.678 ± 0.009; QKKKKKNKNDQK: 0.686 ± 0.056.
To QKKKQTDHTNGV belongs 0.684 ± 0.03.
Turning to QKKTKRGLTYTS, the protein stability index was 0.67 ± 0.043.
To QKPKKKNTTEKQ belongs 0.689 ± 0.021.
In turn, QKRKMIEKEKEK showed a protein stability index of 0.768 ± 0.098.
To QKWKIIRACVGC belongs 0.606 ± 0.049; to QLHTTENHHRRL, 0.792 ± 0.032.
With QLPGTVVRYTLF, the protein stability index came to 0.6408 ± 0.0041.
As to QMTCADGVDCLL, the protein stability index amounted to 0.589 ± 0.018.
Consider QPAVKIGYAMAL, for which the protein stability index was found to be 0.644 ± 0.048.
QPITEALHDSCT: the protein stability index worked out at 0.675 ± 0.098.
In the case of QPNDIEIYTLLT, the protein stability index turned out to be 0.652 ± 0.05.
QPPLPPPLPGSP displayed a protein stability index of 0.741 ± 0.085.
The sequence QPRLRPPLPSPP came in with a protein stability index of 0.638 ± 0.069.
To QPSRQTIPWDTV belongs 0.738 ± 0.037.
Turning to QQNKKKKTRKSG, the protein stability index stood at 0.704 ± 0.046.
Next, QQRVKTYHELHL: 0.712 ± 0.013; QRGKKKKDKSLV: 0.6424 ± 0.0025; QRPFRRRRVLCP: 0.561 ± 0.054.
Next, QSAGGTRAKFGG: 0.658 ± 0.053; QSRFFCDKKVWG: 0.6934 ± 0.0049.
As to QSTGDFAVRQSF, the protein stability index worked out at 0.753 ± 0.093.
Sequence QSWEDILKINEE had a protein stability index of 0.757 ± 0.011.
For the sequence QTQTAKEWAYHP, the protein stability index came out at 0.686 ± 0.015.
QTRYAPCQRAPT came in with a protein stability index of 0.645 ± 0.08.
As to QTTKRKKKAKKK, the protein stability index is 0.675 ± 0.089.
Next, QVASVTSLLPYS: 0.75 ± 0.032.
As to QVGTHVTLCEDP, the protein stability index came out at 0.679 ± 0.0098.
To QWGGWGVGRIEG belongs 0.629 ± 0.069; to QYASPSISTLPV, 0.726 ± 0.065; to RAAPQEDFTFYR, 0.771 ± 0.14.
For RAASLVSCSLIL, the protein stability index is 0.672 ± 0.024.
As for RACALLIVGAGG, the protein stability index was determined as 0.527 ± 0.0085.
Next, RAFDWFFIFGWC: 0.636 ± 0.04.
Next, RAFGQGMGLAFS: 0.737 ± 0.0082; RAGKEGRVSSSK: 0.6619 ± 0.0057; RAKRPAGTSTRG: 0.604 ± 0.016.
Sequence RALRAGVGVRAC had a protein stability index of 0.662 ± 0.08.
In turn, RAPPAARIASGL showed a protein stability index of 0.677 ± 0.026.
Regarding RARPGKATSAFH, the protein stability index came out at 0.73 ± 0.019.
To RARPPPQLHLSP belongs 0.745 ± 0.012; to RAYRSTCRCSER, 0.669 ± 0.081.
For RCFLFSPCWAFS, the protein stability index amounted to 0.5889 ± 0.002.
In the case of RCGLVGILCSSI, the protein stability index came to 0.5632 ± 0.004.
Regarding RCGRSVSCLATG, the protein stability index is 0.696 ± 0.042.
For RCGVGGSVSFWW, the protein stability index is 0.689 ± 0.05.
With RCHGRVNLAEGE, the protein stability index amounted to 0.7564 ± 0.00055.
Regarding RCLRYFVWRLGW, the protein stability index came out at 0.709 ± 0.12.
RCLSRLSALGTD registered a protein stability index of 0.624 ± 0.076.
RCNCTTTTLRSK yielded a protein stability index of 0.6046 ± 0.0019.
Consider RCPDSARRWRVP, for which the protein stability index amounted to 0.7111 ± 0.0045.
Next, RCPVFRCITGGL: 0.61 ± 0.031; RCTLFGMDQSSA: 0.642 ± 0.027; RCTRQVHPLTFR: 0.66 ± 0.038.
Next, RCVRLSISILRP: 0.586 ± 0.038; RCWVTVIRSVRS: 0.601 ± 0.067.
To RDELRTSAGKGS belongs 0.659 ± 0.055; to RDERDWDGSSWA, 0.708 ± 0.03.
Sequence RDGRNSKPTYQP displayed a protein stability index of 0.667 ± 0.025.
RDLVEQTLHIEY gave a protein stability index of 0.667 ± 0.013.
To REEGIEKKEKIR belongs 0.678 ± 0.03.
For REGCYVRGGILL, the protein stability index was 0.68 ± 0.072.
REGRTRGTAAER returned a protein stability index of 0.679 ± 0.027.
REKARNEKRRKT displayed a protein stability index of 0.651 ± 0.0075.
To REKEKGYLNKKK belongs 0.743 ± 0.041; to RELLYLPPPSDP, 0.821 ± 0.051; to REPFCVVGGREG, 0.681 ± 0.04.
The sequence RERAQEMGIRNE registered a protein stability index of 0.675 ± 0.031.
Turning to RERRFFPPSGFS, the protein stability index came out at 0.71 ± 0.018.
The sequence REWLGCYVFGVR gave a protein stability index of 0.677 ± 0.022.
On to RFASVLSLPLSV, for which the protein stability index was found to be 0.642 ± 0.13.
The sequence RFCRPLSHTALA showed a protein stability index of 0.632 ± 0.028.
To RFCRSGCWFRWG belongs 0.607 ± 0.015; to RFFAVSLGGLEF, 0.687 ± 0.031; to RFGGVWRCRGFV, 0.696 ± 0.031.
For RFPLPGLISFSS, the protein stability index was 0.742 ± 0.056.
As for RFPSLCVPFLFP, the protein stability index stood at 0.678 ± 0.013.
To RFPSRLLVPPPP belongs 0.698 ± 0.077; to RFRYFSPLSTTS, 0.671 ± 0.027; to RFSKGKPVSAGG, 0.632 ± 0.033.
In the case of RFTCYLCLKGLL, the protein stability index was found to be 0.681 ± 0.052.
The sequence RFVRGEFLWGVC had a protein stability index of 0.663 ± 0.044.
Take RFVTLLSDFFLL: the protein stability index is 0.681 ± 0.063.
Next, RFWIVVRRQTRT: 0.6447 ± 0.00089; RGACGWVDWWGL: 0.856 ± 0.13.
In the case of RGAGYQLFGPPR, the protein stability index was 0.698 ± 0.037.
Regarding RGARRGAPVCGW, the protein stability index is 0.71 ± 0.0075.
As for RGASKYDGDSRR, the protein stability index is 0.668 ± 0.016.
Next, RGATAKGQRRVR: 0.686 ± 0.046; RGCGAIYRGSCG: 0.707 ± 0.021.
RGCGGGTGDGRG gave a protein stability index of 0.697 ± 0.045.
Consider RGELSGVRVSVR, for which the protein stability index is 0.645 ± 0.043.
Sequence RGFGFAYVSEHI gave a protein stability index of 0.708 ± 0.075.
With RGFGGVLGRVFL, the protein stability index was found to be 0.725 ± 0.017.
For RGFGSLSKPMCH, the protein stability index came out at 0.711 ± 0.012.
To RGFLHVRCRDTC belongs 0.7049 ± 0.0011; to RGGAGSWDWEAG, 0.707 ± 0.028; to RGGGGAKGEGVR, 0.707 ± 0.048.
RGGGGGSAVEGG yielded a protein stability index of 0.635 ± 0.095.
RGGGGGVWGHVV showed a protein stability index of 0.58 ± 0.02.
Sequence RGGGVVRGCSGG gave a protein stability index of 0.679 ± 0.014.
RGGRGLECAFYI came in with a protein stability index of 0.7903 ± 0.001.
As for RGGVGGSVSFWW, the protein stability index worked out at 0.707 ± 0.072.
Consider RGGVGWGVFRVS, for which the protein stability index came out at 0.679 ± 0.064.
For RGGWGGGGAAGS, the protein stability index amounted to 0.649 ± 0.053.
The sequence RGIEQRHFPKGA gave a protein stability index of 0.7 ± 0.011.
In the case of RGKREEQVRGGD, the protein stability index was found to be 0.622 ± 0.035.
Regarding RGKVVRLLLERM, the protein stability index is 0.72 ± 0.067.
The sequence RGLVIWRVGGMK came in with a protein stability index of 0.66337 ± 0.00065.
RGMPMARVRSAG had a protein stability index of 0.693 ± 0.054.
RGNAMSFVCVGE showed a protein stability index of 0.658 ± 0.096.
RGNPLLWHSSPR registered a protein stability index of 0.657 ± 0.051.
